Data taken from patent US10052368B2, “Pegylated tissue kallikrein, and preparation method therefor and uses thereof” (ZONHON BIOPHARMA INSTITUTE INC., priority 2013, dated 2018).

Test system: cerebral ischemia reperfusion model of middle cerebral artery obstruction (MCAO)
Test: Cerebral ischemia reperfusion model of middle cerebral artery obstruction (MCAO)
Format: in vivo
Conditions: SD rats, 3 μg/kg once via vena caudalis
Source text: A cerebral ischemia reperfusion model of middle cerebral artery obstruction (MCAO) was established by thread embolizing the internal carotid artery of SD rats (purchased from Shanghai Sippr bk Laboratory Animal Co. LTD.) A positive control 1 group (urinary kallikrein, Guangdong Tianpu Biochemical Pharmaceutical Co., LTD.), a positive control 2 group (tPA, Shanghai Boehringer Ingelheim Pharmaceuticals Co., LTD), a model control group (PBS), a sham group, a kallikrein group (from Changzhou Qianhong Biochemical Pharmaceutical Co., LTD.), a conjugate 1 group, a conjugate 2 group, a conjugate 3 group, and a conjugate 4 group were arranged respectively. Administration by injection through vena caudalis was performed once at 3 μg/kg (calculated according to the protein amount) immediately after the cerebral ischemia reperfusion. Neurologic deficit symptoms were observed 24 h after the reperfusion, and the cerebral infarction area was determined. In the model group, an equal volume of PBS was injected through vena caudalis into the rat. In the sham group, only blood vessels were separated, no embolizing thread was inserted, and an equal volume of PBS was injected through vena caudalis into the rats. Neurologic deficit symptoms were evaluated employing an improved Bederson 5-point system method. Neurologic deficit symptoms of the rats after brain trauma were evaluated by a single-blind method, i.e., the animals were marked according to groups by designers of the experiment, and scores of the neurologic deficit symptoms were given by experimenters blind to the grouping situation. The cerebral infarction area was calculated employing the following method. Cerebrums of the SD rats were stained with TTC (2,3,5-triphenyltetrazolium chloride) and then the photographs were subjected to statistics using an image analysis software, and the percentage of cerebral infarction area was calculated according to the following formula: % cerebral infarction area=100×(total ischemic area/total area on the right side)

B1: Positive control 2: tPA, Shanghai Boehringer Ingelheim Pharmaceuticals (protein, UniProt P00750 36-562, looked up)
Tissue-type plasminogen …: SYQVICRDEKTQMIYQQHQSWLRPVLRSNRVEYCWCNSGRAQCHSVPVKSCSEPRCFNGGTCQQALYFSDFVCQCPEGFAGKCCEIDTRATCYEDQGISYRGTWSTAESGAECTNWNSSALAQKPYSGRRPDAIRLGLGNHNYCRNPDRDSKPWCYVFKAGKYSSEFCSTPACSEGNSDCYFGNGSAYRGTHSLTESGASCLPWNSMILIGKVYTAQNPSAQALGLGKHNYCRNPDGDAKPWCHVLKNRRLTWEYCDVPSCSTCGLRQYSQPQFRIKGGLFADIASHPWQAAIFAKHRRSPGERFLCGGILISSCWILSAAHCFQERFPPHHLTVILGRTYRVVPGEEEQKFEVEKYIVHKEFDDDTYDNDIALLQLKSDSSRCAQESSVVRTVCLPPADLQLPDWTECELSGYGKHEALSPFYSERLKEAHVRLYPSSRCTSQHLLNRTVTDNMLCAGDTRSGGPQANLHDACQGDSGGPLVCLNDGRMTLVGIISWGLGCGQKDVPGVYTKVTNYLDWIRDNMRP
**Q.** For B1, which “amelioration of cerebral infarction status of the model animals (in words)” value is on record?
**A.** Its value is “no apparent amelioration”.

**Q.** And the “Cerebral infarction area (%)” value (24 h after reperfusion, TTC staining)?
**A.** The value was 31.55 ± 2.71%.

**Q.** And the “Score of neurologic deficit symptom” value (24 h after reperfusion, improved Bederson 5-point system)?
**A.** Its value is 3.00 ± 0.20.
